Where a chain is given by its changes, count along the chain named. Names and notes keep the numbering of the source.
How the values were obtained:
[1] = target: TvTIM1 I45A (Trichomonas vaginalis) (UniProt A2EGX9)
[2] = target: TvTIM1 I45A (Trichomonas vaginalis) (UniProt A2EGX9); experiment: SEC; gel filtration at 7 mg/ml (~260 μM) in Tris pH 7.4, 100 mM NaCl; dimer to monomers
[3] = target: TvTIM1 I45A (Trichomonas vaginalis) (UniProt A2EGX9); experiment: AUC
[4] = target: TvTIM1 I45F (Trichomonas vaginalis) (UniProt A2EGX9)
[5] = target: TvTIM1 I45G (Trichomonas vaginalis) (UniProt A2EGX9)
[6] = target: TvTIM1 I45G (Trichomonas vaginalis) (UniProt A2EGX9); experiment: SEC; gel filtration at 7 mg/ml (~260 μM) in Tris pH 7.4, 100 mM NaCl; dimer to monomers
[7] = target: TvTIM1 I45G-Q52C double mutant (Trichomonas vaginalis) (UniProt A2EGX9)
[8] = target: TvTIM1 I45Y (Trichomonas vaginalis) (UniProt A2EGX9)
[9] = target: the molecule itself; experiment: SEC; gel filtration at 7 mg/ml (~260 μM) in Tris pH 7.4, 100 mM NaCl; dimer to monomers
[10] = target: the molecule itself; experiment: AUC; sedimentation velocity, 20°C, 129,024 rcf, absorbance at 280 nm, c(s) with SEDFIT; protein 7 to 35 μM, no ligand

## TvTIM1 I45A (from UniProt A2EGX9) (enzyme)
[1]
  Kcat/Km (substrate DGAP, coupled assay, 25°C; enzyme at 2 nM): 198000 M⁻¹ s⁻¹
[2]
  percent of the total injected protein in the dimer peak: 13%
  percent of the total protein in the dimer peak: 3%
[3]
  percent dimer with 20 μM PGH: 17%
  percent dimer with 250 μM PGH: 38%
  percent dimer with 600 μM PGH: 38%
  percent dimer with 1000 μM PGH: 44%
  percent dimer with 2000 μM PGH: 46%

## TvTIM1 I45F (from UniProt A2EGX9) (enzyme)
[4]
  Kcat/Km (substrate DGAP, coupled assay, 25°C; enzyme at 10 nM): 33300 M⁻¹ s⁻¹

## TvTIM1 I45G (from UniProt A2EGX9) (enzyme)
[5]
  Kcat/Km (substrate DGAP, coupled assay, 25°C; enzyme at 5 nM): 40800 M⁻¹ s⁻¹
[6]
  percent of the total protein in the dimer peak: 6%

## TvTIM1 I45G-Q52C double mutant (from UniProt A2EGX9 1-252) (enzyme)
[7]
  Kcat/Km of I45G-Q52C before cross-linking (substrate DGAP, coupled assay, 25°C): 39700 M⁻¹ s⁻¹
  Kcat/Km of the purified cross-linked I45G-Q52C dimer (substrate DGAP, coupled assay, 25°C): 2.5e+06 M⁻¹ s⁻¹

## TvTIM1 I45Y (from UniProt A2EGX9) (enzyme)
[8]
  Kcat/Km (substrate DGAP, coupled assay, 25°C; enzyme at 12 nM): 12200 M⁻¹ s⁻¹

B1: TvTIM1 I45V (enzyme)
chain: MRTFFVGGNWKANPKTVEEAEKLIEMLNGAKVEGNVEVVVAAPFVFLPTLQQKLRKDWKVSAENVFTKPNGAFTGEVTVPMIKSFGIEWTILGHSERRDILKEDDEFLAAKAKFALENGMKIIYCCGEHLSEREAGKASEFVSAQIEKMIPAIPAGKWDDVVIAYEPIWAIGTGKVASTQDAQEMCKVIRDILAAKVGADIANKVRILYGGSVKPNNCNELAACPDVDGFLVGGASLEPGFINIVNSNVHSK
[9]
  stoichiometry N: 2

B2: Triosephosphate isomerase 1 from Trichomonas vaginalis, wild type (enzyme, UniProt A2EGX9 1-252, looked up)
chain: B1 chain with V45I
notes: triosephosphate isomerase TvTIM1 of Trichomonas vaginalis; Homodimer in solution (gel filtration, AUC); the rows are of one chain with another; also called TvTIM1; TIM1WT
[10]
  stoichiometry N: 2

B3: TvTIM1 I45L (enzyme)
chain: B1 chain with V45L
[9]
  stoichiometry N: 2

From article PMC4664265, “Substrate-Induced Dimerization of Engineered Monomeric Variants of Triosephosphate Isomerase from Trichomonas vaginalis” (PLoS ONE, 2015)
